One molecule from US20130011380A1 (published 2013) can be followed below.

What all share (experiment): anti-Flag IP-MS, mES nuclear extract
One test addresses Lmo7 (mouse, UniProt E9PYF4 24-1649). From the text:
(§1) Mass spectrometry was used to identify the potential interactors of AID and understand the functional molecular players that orchestrate mammalian DNA demethylation. The following AID constructs were used: 1) human AID containing two tandem Flag tags at the N-terminus of the protein, cloned into the pHAGE-STEMCCA lentiviral vector, and 2) human AID containing two tandem Flag tags at the C-terminus of the protein, cloned into the pHAGE-STEMCCA lentiviral vector. Virus containing these constructs was subsequently used to infect mouse embryonic stem cells (CGR8), and stable cell lines overexpressing Flag-human AID were selected. As a control, the lentiviral vector containing only the 2× Flag tag was used.
(§2) The stable ES cell lines expressing AID and Control 2× Flag were fractionated into cytoplasmic and nuclear extracts for immunoprecipitating the AID protein using an antibody against the Flag tag. The resulting complex was subjected to mass spectrometric analyses.
(§3) TABLE 5 After immunoprecipitation, AID and the interacting proteins were identified by mass spectrometry (MS). All proteins were subjected to trypsin digestion to break them down into smaller peptides, and run through a mass spectrometer. Column C indicates the number of unique peptides of a particular protein detected by MS analysis, to be associated with the AID-Flag protein. Column D represents the number of peptides associated with the Flag only protein. The higher the number of unique peptides (>3) that are associated with AID, but not with the Flag protein, the stronger the indication of the specificity of the interaction. Columns E and F represent the associated spectra i.e. the frequency of these peptides detected in association with the AID protein as a measure of the abundance of the associated protein.

Another test concerns the target Tmpo (mouse).
From the text: as §1, §2, §3

A further test concerns the target T1, Tip2 (mouse).
T1 construct: Gene name as printed; possibly a misprint, not resolved
From the text: as §1, §2, §3

Sequence of Lmo7 (E9PYF4 entry or part of it): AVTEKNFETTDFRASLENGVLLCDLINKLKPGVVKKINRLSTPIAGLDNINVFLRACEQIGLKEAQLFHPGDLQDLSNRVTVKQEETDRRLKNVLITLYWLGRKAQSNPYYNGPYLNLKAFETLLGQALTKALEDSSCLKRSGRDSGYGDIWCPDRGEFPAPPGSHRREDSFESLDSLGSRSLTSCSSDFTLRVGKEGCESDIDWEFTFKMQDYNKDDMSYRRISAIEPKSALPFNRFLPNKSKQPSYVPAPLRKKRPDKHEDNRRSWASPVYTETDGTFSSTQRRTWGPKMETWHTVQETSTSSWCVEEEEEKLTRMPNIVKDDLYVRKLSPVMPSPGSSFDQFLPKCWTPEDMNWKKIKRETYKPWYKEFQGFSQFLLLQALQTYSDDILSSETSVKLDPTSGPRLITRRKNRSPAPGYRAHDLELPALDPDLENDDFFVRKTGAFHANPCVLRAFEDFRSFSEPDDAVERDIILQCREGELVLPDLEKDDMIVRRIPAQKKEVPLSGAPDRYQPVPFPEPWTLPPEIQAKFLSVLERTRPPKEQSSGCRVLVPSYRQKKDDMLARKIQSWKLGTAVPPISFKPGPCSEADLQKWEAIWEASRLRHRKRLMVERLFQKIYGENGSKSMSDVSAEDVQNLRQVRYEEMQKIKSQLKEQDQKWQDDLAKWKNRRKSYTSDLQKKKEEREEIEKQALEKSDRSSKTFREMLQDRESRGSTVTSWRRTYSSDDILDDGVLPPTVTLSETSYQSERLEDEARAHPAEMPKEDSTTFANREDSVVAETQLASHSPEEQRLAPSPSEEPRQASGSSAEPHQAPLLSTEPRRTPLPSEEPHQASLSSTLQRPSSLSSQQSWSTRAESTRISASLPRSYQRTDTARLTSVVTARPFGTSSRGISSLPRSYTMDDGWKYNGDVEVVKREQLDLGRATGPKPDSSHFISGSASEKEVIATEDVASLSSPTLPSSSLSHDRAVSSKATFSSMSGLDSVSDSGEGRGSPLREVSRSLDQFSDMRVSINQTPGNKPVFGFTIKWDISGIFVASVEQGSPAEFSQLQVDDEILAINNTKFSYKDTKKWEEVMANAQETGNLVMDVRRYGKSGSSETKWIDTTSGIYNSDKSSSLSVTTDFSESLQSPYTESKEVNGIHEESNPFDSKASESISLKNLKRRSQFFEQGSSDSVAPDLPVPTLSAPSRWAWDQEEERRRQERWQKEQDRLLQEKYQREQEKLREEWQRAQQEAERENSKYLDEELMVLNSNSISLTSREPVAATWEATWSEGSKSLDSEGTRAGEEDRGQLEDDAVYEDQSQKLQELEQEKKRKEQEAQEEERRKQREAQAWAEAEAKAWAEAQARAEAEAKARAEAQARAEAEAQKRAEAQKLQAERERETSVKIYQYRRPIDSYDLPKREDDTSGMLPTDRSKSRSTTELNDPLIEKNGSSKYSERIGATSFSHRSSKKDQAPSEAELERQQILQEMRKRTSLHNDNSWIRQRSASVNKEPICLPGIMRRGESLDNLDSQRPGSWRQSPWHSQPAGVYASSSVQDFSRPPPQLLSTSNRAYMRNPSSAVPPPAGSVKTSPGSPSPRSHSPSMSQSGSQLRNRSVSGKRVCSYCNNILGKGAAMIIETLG
T1 sequence (Q9Z0U1 whole entry): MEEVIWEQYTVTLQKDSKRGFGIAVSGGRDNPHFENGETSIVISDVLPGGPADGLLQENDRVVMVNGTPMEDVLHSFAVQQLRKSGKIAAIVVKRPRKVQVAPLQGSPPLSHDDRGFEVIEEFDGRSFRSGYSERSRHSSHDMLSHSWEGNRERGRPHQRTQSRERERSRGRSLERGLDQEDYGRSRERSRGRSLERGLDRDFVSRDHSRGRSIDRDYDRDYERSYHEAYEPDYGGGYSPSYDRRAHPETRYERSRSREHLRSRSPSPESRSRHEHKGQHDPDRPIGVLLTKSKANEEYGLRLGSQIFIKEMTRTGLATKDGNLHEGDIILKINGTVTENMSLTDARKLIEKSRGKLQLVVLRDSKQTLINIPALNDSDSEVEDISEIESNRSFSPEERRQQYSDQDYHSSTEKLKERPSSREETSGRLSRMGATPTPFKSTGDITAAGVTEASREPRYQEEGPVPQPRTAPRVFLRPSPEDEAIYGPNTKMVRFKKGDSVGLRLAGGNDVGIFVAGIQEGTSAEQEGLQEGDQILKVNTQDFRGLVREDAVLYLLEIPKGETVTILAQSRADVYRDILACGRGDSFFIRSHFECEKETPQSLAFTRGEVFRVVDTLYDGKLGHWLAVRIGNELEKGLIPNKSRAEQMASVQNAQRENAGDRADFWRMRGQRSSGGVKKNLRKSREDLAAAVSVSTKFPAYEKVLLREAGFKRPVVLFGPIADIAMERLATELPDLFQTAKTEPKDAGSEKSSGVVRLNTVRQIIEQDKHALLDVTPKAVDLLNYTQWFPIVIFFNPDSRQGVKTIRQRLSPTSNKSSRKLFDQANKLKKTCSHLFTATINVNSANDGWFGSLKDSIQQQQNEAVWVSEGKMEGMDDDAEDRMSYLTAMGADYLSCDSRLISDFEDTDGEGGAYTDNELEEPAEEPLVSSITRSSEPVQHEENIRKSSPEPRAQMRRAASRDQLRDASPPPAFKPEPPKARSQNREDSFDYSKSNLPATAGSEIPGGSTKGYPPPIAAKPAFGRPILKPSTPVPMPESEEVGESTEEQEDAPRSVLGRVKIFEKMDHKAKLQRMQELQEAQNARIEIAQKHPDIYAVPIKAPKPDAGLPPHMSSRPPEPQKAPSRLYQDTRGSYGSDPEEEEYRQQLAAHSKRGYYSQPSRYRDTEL

B1: human AID containing two tandem Flag tags (Flag-human AID) (enzyme, UniProt Q9GZX7 1-198, looked up)
chain: MDSLLMNRRKFLYQFKNVRWAKGRRETYLCYVVKRRDSATSFSLDFGYLRNKNGCHVELLFLRYISDWDLDPGRCYRVTWFTSWSPCYDCARHVADFLRGNPNLSLRIFTARLYFCEDRKAEPEGLRRLHRAGVQIAIMTFKDYFYCWNTFVENHERTFKAWEGLHENSVRLSRQLRRILLPLYEVDDLRDAFRTLGL
notes: Stably overexpressed in mouse ES cells (CGR8) from the pHAGE-STEMCCA lentiviral vector; Two constructs (N-terminal or C-terminal 2x Flag) were made; also called AID-Flag protein; not shown: two tandem Flag tags
Take B1: the Nucleus peptide turned out to be 15 peptides with Lmo7, 4 peptides in the test with Tmpo and 16 peptides with Tip2. For the same molecule, the Nucleus spectra was 31 spectra in the test with Lmo7, 16 spectra with Tmpo and 36 spectra with Tip2.
